In PMC9576728:

How the values were obtained:
[1] = target: POU2F3 (UniProt Q9UKI9); experiment: co-immunoprecipitation (IP:HA) and western blot, quantified; conditions: HEK293T cells, IP:HA lanes, parent: 1
[2] = target: FLAG-POU2F3 (UniProt Q9UKI9); experiment: co-immunoprecipitation (IP:FLAG) and western blot, quantified; conditions: HEK293T cells, IP:FLAG lanes, parent: 1

ratio to parent ([1]; normalised POU2F3/COLCA2 ratio): 0.37
ratio to parent ([1]; raw POU2F3 band (untagged control lane 0.29; HA bait band WT 1, DAAPP 1.44)): 0.53
ratio to parent ([2]; normalised COLCA2/POU2F3 ratio): 0.52
ratio to parent ([2]; raw HA band (V5-POU2F3 control lane 0; FLAG bait band WT 1, DAAPP 1.07, V5 control 0.09)): 0.56
Substance: HA-COLCA2 (WT) (from UniProt A8K830) VKELL>DAAPP (V>D; K>A; E>A; L>P; L>P; residue numbers not printed)
